Test results taken from patent publication US20240400705A1 (SYNERGY IMT, published 2024).

Experiments:
[1] = target: T1, TROP2 on DLD1 colon cancer cells (UniProt P09758 27-323, limits assumed); test: cell-based or functional assay
T1 sequence (looked up): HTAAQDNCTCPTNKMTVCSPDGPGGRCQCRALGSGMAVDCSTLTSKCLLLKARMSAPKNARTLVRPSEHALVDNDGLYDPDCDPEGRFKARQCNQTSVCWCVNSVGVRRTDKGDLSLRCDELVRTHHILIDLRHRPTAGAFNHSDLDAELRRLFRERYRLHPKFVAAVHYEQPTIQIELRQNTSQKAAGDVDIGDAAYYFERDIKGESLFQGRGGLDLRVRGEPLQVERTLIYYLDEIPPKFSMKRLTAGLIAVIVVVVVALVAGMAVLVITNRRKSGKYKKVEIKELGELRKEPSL

[2] = target: T1, TROP2 on DLD1 colon cancer cells; test: flow cytofluorimetry on DLD1 colon tumor cells, 250 nM; bar = MFI, marker = percent positive; the molecule also carries a b2GP1 D5 domain for phosphatidylserine
Procedure: (§1) The binding of the multispecific recombinant antigen binding molecules to expanded T cells (FIG. 6D) and to the colon tumor cell line DLD1 (FIG. 6A) was determined by flow cytofluorimetry. Binding was conducted with a saturating concentration (250 nM). The T cells were expanded in culture from immunocult ([…] Technologies) stimulated peripheral blood mononuclear cells that were maintained in culture for at least 30 days. Multispecific recombinant antigen binding molecules were produced in HEK293 cells and one-step purified by FPLC using a HiTrap Protein A column. The expression of various T cell markers or tumor antigens was determined using commercial antibodies specific for Trop2, CD137, MICA/MICB, Tim4, Tim1 (all purchased from Biolegend). […] Greater levels of binding to DLD1 are associated with binding to PS and in particular bivalent binding to PS (e.g., 17v7-18v9).

[3] = target: CD137 on cells (CD137 reporter cell line, Promega; expanded T cells) (UniProt Q07011 24-255, limits assumed); test: cell-based or functional assay
Chain of CD137 on cells (CD137 reporter cell line, Promega; expanded T cells) (Q07011 24-255 limits assumed): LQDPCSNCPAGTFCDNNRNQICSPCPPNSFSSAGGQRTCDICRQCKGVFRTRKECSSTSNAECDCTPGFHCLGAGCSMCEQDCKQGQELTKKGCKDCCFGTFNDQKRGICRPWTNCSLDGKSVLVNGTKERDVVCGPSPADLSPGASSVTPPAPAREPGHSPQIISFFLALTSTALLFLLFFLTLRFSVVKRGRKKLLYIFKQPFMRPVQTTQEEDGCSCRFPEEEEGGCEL

CD3 on T cells = target: T2, CD3 on T cells (UniProt P07766 23-207); test: flow cytofluorimetry on expanded T cells, 250 nM; bar = MFI, marker = percent positive
T2 construct: whole, on cells; CD3 is a complex; also called T cell CD3
T2 sequence (P07766 23-207): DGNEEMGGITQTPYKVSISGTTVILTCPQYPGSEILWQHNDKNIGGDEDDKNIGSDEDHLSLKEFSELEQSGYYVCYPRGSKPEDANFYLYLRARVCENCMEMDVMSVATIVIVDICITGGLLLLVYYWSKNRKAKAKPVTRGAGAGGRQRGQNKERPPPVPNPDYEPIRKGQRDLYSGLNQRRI
Procedure: as §1

[4] = target: T1, TROP2 on DLD1 colon cancer cells; test: flow cytofluorimetry on DLD1 colon tumor cells, 250 nM; bar = MFI, marker = percent positive
Procedure: as §1

B1: TetrAx 17v17-18v23 (PS x Trop2 x CD3) (bispecific antibody)
light: DIQLTQSPSSLSASVGDRVSITCKASQDVSIAVAWYQQKPGKAPKLLIYSASYRTTGVPDRFSGSGSGTDFTLTISSLQPEDFAVYYCQQHYITPLTFGAGTKVEIKRTVAAPSVFIFPPSDEQLKSGTASVVCLLNNFYPREAKVQWKVDNALQSGNSQESVTEQDSKDSTYSLSSTLTLSKADYEKQKVYACEVTHQGLSSPVTKSFLRGECGGPAGGGGGTHTCPPCPAPEAAGGPSVFLFPPKPKDTLMISRTPEVTCVVVDVSHEDPEVKFNWYVDGVEVHNAKTKPREEQYNSTYRVVSVLTVLHQDWLNGKEYKCKVSNKALPAPIEKTISKAKGQPREPQVCTLPPSRDELTKNQVSLSCAVKGFYPSDIAVEWESNGQPENNYKTTPPVLDSDGSFFLVSKLTVDKSRWQQGNVFSCSVMHEALHNHYTQKSLSLSPGKGGGGGGASCKVPVKKATVVYQGERVKIQEKFKNGMLHGDKVSFFCKNKEKKCSYTEDAQCIDGTIEVPKCFKEHSSLAFWKTDASDVKPC
heavy: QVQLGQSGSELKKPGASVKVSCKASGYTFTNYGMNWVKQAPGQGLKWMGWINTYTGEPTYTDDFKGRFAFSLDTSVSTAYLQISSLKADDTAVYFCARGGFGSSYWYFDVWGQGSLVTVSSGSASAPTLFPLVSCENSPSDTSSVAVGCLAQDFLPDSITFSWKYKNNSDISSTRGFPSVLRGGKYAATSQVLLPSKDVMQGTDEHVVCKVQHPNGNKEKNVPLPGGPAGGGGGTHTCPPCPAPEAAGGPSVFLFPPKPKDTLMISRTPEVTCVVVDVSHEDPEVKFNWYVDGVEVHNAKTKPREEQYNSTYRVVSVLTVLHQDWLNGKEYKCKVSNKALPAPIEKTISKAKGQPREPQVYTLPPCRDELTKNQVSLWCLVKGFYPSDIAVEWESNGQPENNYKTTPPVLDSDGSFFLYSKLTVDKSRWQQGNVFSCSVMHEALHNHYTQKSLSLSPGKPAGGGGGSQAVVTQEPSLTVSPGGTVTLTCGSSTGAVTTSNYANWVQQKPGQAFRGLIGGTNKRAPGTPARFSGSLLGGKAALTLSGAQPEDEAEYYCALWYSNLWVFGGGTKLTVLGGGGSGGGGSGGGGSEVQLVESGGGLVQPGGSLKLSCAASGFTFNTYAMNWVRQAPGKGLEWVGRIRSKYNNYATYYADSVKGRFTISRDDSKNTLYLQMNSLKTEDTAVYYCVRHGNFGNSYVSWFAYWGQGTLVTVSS
- DLD1 cytotoxicity EC50 (18 h, T cells) [1]: 0.5 pM
- DLD1 cytotoxicity EC50 in a 3D tumor model (spheroids, T cells 2:1) [1]: 21 pM

B2: 17v17-18v22 (bispecific antibody)
light chain 17v17: B1 light
heavy chain 18v22: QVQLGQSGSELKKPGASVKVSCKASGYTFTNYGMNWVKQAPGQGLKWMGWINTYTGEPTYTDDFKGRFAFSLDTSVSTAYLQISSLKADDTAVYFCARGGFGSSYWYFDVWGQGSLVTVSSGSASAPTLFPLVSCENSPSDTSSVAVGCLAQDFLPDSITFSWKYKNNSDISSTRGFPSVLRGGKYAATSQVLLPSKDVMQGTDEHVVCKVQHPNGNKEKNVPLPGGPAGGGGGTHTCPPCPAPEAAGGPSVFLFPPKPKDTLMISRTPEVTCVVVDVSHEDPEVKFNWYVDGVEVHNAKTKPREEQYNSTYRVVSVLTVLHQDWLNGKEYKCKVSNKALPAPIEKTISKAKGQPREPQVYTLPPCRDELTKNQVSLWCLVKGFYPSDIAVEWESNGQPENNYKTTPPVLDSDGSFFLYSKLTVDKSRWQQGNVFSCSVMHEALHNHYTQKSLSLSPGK
notes: also called TROP2 - PS (control)
- binding result [2]: binds

B3: TetrAx 17v16-18v23 (Trop2 x CD3) (bispecific antibody)
light: DIQLTQSPSSLSASVGDRVSITCKASQDVSIAVAWYQQKPGKAPKLLIYSASYRTTGVPDRFSGSGSGTDFTLTISSLQPEDFAVYYCQQHYITPLTFGAGTKVEIKRTVAAPSVFIFPPSDEQLKSGTASVVCLLNNFYPREAKVQWKVDNALQSGNSQESVTEQDSKDSTYSLSSTLTLSKADYEKQKVYACEVTHQGLSSPVTKSFLRGECGGPAGGGGGTHTCPPCPAPEAAGGPSVFLFPPKPKDTLMISRTPEVTCVVVDVSHEDPEVKFNWYVDGVEVHNAKTKPREEQYNSTYRVVSVLTVLHQDWLNGKEYKCKVSNKALPAPIEKTISKAKGQPREPQVCTLPPSRDELTKNQVSLSCAVKGFYPSDIAVEWESNGQPENNYKTTPPVLDSDGSFFLVSKLTVDKSRWQQGNVFSCSVMHEALHNHYTQKSLSLSPGK
heavy: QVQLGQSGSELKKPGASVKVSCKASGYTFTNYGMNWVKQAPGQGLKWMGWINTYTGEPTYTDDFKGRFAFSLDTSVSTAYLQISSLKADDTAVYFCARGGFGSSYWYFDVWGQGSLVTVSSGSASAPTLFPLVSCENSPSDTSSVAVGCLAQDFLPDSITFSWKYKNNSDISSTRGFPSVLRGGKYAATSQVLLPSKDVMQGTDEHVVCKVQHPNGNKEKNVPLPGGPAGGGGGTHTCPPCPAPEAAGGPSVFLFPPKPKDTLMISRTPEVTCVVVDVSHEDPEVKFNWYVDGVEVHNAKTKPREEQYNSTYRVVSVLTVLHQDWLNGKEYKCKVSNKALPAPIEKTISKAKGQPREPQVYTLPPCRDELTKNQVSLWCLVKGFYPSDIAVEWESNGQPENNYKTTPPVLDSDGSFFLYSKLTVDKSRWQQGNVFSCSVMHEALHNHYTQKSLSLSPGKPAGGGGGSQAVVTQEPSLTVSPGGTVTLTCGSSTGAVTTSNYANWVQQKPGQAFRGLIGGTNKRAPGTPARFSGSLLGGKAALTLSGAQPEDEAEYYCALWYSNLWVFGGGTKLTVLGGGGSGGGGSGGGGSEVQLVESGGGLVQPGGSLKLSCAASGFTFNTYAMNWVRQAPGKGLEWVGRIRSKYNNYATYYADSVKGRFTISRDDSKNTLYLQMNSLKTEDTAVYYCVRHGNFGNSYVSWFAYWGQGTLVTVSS
- DLD1 cytotoxicity EC50 (18 h, T cells) [1]: 8 pM

B4: TetrAx 20v8-18v26 (Trop2 x CD137, two CD137L domains) (bispecific antibody)
light: DIQLTQSPSSLSASVGDRVSITCKASQDVSIAVAWYQQKPGKAPKLLIYSASYRTTGVPDRFSGSGSGTDFTLTISSLQPEDFAVYYCQQHYITPLTFGAGTKVEIKRTVAAPSVFIFPPSDEQLKSGTASVVCLLNNFYPREAKVQWKVDNALQSGNSQESVTEQDSKDSTYSLSSTLTLSKADYEKQKVYACEVTHQGLSSPVTKSFLRGECGGPAGGGGGTHTCPPCPAPEAAGGPSVFLFPPKPKDTLMISRTPEVTCVVVDVSHEDPEVKFNWYVDGVEVHNAKTKPREEQYNSTYRVVSVLTVLHQDWLNGKEYKCKVSNKALPAPIEKTISKAKGQPREPQVCTLPPSRDELTKNQVSLSCAVKGFYPSDIAVEWESNGQPENNYKTTPPVLDSDGSFFLVSKLTVDKSRWQQGNVFSCSVMHEALHNHYTQKSLSLSPGKGGGGGGMFAQLVAQNVLLIDGPLSWYSDPGLAGVSLTGGLSYKEDTKELVVAKAGVYYVFFQLELRRVVAGEGSGSVSLALHLQPLRSAAGAAALALTVDLPPASSEARNSAFGFQGRLLHLSAGQRLGVHLHTEARARHAWQLTQGATVLGLFRVTP
heavy: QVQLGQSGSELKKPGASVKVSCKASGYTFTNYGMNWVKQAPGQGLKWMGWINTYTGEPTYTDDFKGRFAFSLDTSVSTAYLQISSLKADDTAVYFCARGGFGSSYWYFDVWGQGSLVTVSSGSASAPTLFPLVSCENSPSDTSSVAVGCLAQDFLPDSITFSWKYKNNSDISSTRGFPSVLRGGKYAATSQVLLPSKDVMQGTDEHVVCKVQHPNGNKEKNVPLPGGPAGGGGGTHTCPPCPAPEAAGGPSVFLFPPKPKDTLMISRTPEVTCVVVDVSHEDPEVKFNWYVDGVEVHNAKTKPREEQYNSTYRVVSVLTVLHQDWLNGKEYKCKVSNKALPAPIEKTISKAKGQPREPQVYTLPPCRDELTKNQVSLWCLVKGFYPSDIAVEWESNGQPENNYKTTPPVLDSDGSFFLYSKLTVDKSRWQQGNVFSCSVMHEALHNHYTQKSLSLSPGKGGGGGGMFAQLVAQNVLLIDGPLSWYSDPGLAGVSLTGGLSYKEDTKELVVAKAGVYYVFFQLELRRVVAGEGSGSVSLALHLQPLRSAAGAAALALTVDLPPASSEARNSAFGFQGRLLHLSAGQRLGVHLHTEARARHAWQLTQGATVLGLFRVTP
notes: also called dual CD137L TetrAx
- CD137 signaling relative to the TetrAx with a single CD137L domain [3]: 3 fold
- T cell DLD1 cytotoxicity EC50 [3]: 300 pM
- binding result (CD3 on T cells): no binding (tested: 250 nM)

B5: TetrAx 20v8-18v22 (Trop2 x CD137, one CD137L domain) (bispecific antibody)
light: B4 light
heavy: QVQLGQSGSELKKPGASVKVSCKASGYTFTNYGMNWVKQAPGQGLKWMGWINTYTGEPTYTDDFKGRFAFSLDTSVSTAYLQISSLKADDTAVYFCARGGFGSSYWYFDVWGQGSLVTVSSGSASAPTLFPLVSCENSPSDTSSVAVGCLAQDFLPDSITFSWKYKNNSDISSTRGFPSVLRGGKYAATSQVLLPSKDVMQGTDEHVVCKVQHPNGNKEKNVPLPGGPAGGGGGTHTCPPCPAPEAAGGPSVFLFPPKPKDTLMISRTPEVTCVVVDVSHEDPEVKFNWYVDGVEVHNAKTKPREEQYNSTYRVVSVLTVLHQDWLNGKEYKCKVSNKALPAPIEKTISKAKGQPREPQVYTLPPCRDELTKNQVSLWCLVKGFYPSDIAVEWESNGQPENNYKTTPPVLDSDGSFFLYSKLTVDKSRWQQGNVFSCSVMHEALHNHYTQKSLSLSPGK
notes: CD137L domain is residues 90 to 242 (THD)
- T cell DLD1 cytotoxicity [3]: 40 fold
- binding result (CD3 on T cells): no binding (tested: 250 nM)
- binding result [4]: binds

B6: TetrAx 17v9-18 (Trop2 x CD3) (bispecific antibody)
light: QAVVTQEPSLTVSPGGTVTLTCGSSTGAVTTSNYANWVQEKPGQAFRGLIGGTNKRAPGTPARFSGSLLGGKAALTLSGAQPEDEAEYYCALWYSNLWVFGCGTKLTVLRTVAAPSVFIFPPSDEQLKSGTASVVCLLNNFYPREAKVQWKVDNALQSGNSQESVTEQDSKDSTYSLSSTLTLSKADYEKHKVYACEVTHQGLSSPVTKSFNRGECGGPAGGGGGTHTCPPCPAPEAAGGPSVFLFPPKPKDTLMISRTPEVTCVVVDVSHEDPEVKFNWYVDGVEVHNAKTKPREEQYNSTYRVVSVLTVLHQDWLNGKEYKCKVSNKALPAPIEKTISKAKGQPREPQVCTLPPSRDELTKNQVSLSCAVKGFYPSDIAVEWESNGQPENNYKTTPPVLDSDGSFFLVSKLTVDKSRWQQGNVFSCSVMHEALHNHYTQKSLSLSPGKGGGGGGQVQLGQSGSELKKPGASVKVSCKASGYTFTSYAMNWVRQAPGQGLKWMGWINTYTGETPYTDDFKGRFAFSLDTSVSTAYLQISSLKADDTAVYFCARGGFGSSYWYFDVWGQGTLVTVSSGGGGSGGGGSGGGGSDIQLTQSPSSLSASVGDRVSITCKASQDVSIAVAWYQQKPGKAPKLLIYSASYRYTGVPDRFSGSGSGTDFTLTISSLQPEDFAVYYCQQHYITPLTFGAGTKVEIK
heavy: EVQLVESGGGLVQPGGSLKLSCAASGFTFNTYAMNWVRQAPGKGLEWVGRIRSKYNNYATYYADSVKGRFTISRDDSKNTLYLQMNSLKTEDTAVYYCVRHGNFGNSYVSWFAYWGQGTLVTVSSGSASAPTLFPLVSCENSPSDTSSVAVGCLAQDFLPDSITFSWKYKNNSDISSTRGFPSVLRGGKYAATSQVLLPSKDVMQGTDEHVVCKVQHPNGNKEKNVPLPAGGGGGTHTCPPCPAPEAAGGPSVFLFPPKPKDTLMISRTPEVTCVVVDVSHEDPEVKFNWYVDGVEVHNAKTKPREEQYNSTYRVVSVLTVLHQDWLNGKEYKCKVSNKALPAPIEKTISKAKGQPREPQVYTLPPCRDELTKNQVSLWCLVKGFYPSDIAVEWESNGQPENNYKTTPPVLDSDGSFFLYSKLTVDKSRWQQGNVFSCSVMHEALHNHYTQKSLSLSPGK
- DLD1 cytotoxicity EC50 (18 h, T cells) [1]: ~3 pM
